The numbers were not newly measured in paper PMC5934386, which cites them from elsewhere.

In general, pKd refers to the Kd on a negative log10 scale, so that one unit is a factor of ten.

pKd: −log10 of the molar value. Where two headings read alike, the source gives them in different places.

In data set [1] the target is Ubiquitin (Homo sapiens) (UniProt P0CG47).
The target is the same in data set [2]. The experiment in a line: NMR.

Chain of E2-25K UBA (P61086 157-200): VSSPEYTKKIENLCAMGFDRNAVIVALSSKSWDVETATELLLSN
Chain of yeast E2-25K (P21734 whole entry): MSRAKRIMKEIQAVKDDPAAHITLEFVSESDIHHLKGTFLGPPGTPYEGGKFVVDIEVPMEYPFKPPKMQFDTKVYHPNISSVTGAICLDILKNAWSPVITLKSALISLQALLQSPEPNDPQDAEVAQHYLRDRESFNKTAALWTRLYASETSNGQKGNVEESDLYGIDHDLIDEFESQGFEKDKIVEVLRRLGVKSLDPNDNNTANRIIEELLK

E2-25K UBA (from UniProt P61086): the pKd in the data set with Ubiquitin (Homo sapiens) [1] is 2.92.

yeast E2-25K (from UniProt P21734): the negative-log Kd (pKd) with Ubiquitin (Homo sapiens) [2] was 3.64.
